# B1: IL-7R (alpha and gamma-c chains) (receptor, mouse)
# chain 1: ESGNAQDGDLEDADADDHSFWCHSQLEVDGSQHLLTCAFNDSDINTANLEFQICGALLRVKCLTLNKLQDIYFIKTSEFLLIGSSNICVKLGQKNLTCKNMAINTIVKAEAPSDLKVVYRKEANDFLVTFNAPHLKKKYLKKVKHDVAYRPARGESNWTHVSLFHTRTTIPQRKLRPKAMYEIKVRSIPHNDYFKGFWSEWSPSSTFETPEPKNQGGWDPVLPSVTILSLFSVFLLVILAHVLWKKRIKPVVWPSLPDHKKTLEQLCKKPKTSLNVSFNPESFLDCQIHEVKGVEARDEVESFLPNDLPAQPEELETQGHRAAVHSANRSPETSVSPPETVRRESPLRCLARNLSTCNAPPLLSSRSPDYRDGDRNRPPVYQDLLPNSGNTNVPVPVPQPLPFQSGILIPVSQRQPISTSSVLNQEEAYVTMSSFYQNK
# chain 2: WSSKVLMSSANEDIKADLILTSTAPEHLSAPTLPLPEVQCFVFNIEYMNCTWNSSSEPQATNLTLHYRYKVSDNNTFQECSHYLFSKEITSGCQIQKEDIQLYQTFVVQLQDPQKPQRRAVQKLNLQNLVIPRAPENLTLSNLSESQLELRWKSRHIKERCLQYLVQYRSNRDRSWTELIVNHEPRFSLPSVDELKRYTFRVRSRYNPICGSSQQWSKWSQPVHWGSHTVEENPSLFALEAVLIPVGTMGLIITLIFVYCWLERMPPIPPIKNLEDLVTEYQGNFSAWSGVSKGLTESLQPDYSERFCHVSEIPPKGGALGEGPGGSPCSLHSPYWPPPCYSLKPEA
# notes: whole, on cells; also called IL-7 receptor
# Molecular target: T1, c-Met (mouse, UniProt P16056 25-1379)
# T1 construct: whole, on cells; also called HGFR; HGF receptor
# Test: confocal microscopy of cells stained with anti-IL-7R-alpha and anti-c-Met; co-localisation on scIL-7/HGF-beta-stimulated cells and on pre-pro-B cells of normal BM
# From the text: Consistent with these blocking experiments, approximately 60% of the scIL-7/HGF-beta culture-generated CLPs and pre-pro-B cells expressed both c-Met and the IL-7R, whereas more than 80% at the rIL-7 culture-generated pro-B cells expressed the IL-7R only (data not shown). […] However, as noted previously for native IL-7/HGF-beta, scIL-7/HGF-beta was able to “prime” pre-pro-B/pro-B cells to respond to rIL-7 (FIG. 32D), presumably by up-regulating the IL-7R-alpha chain. […] Direct evidence that both the IL-7R (alpha and gamma-c chains) and c-Met are major components of the receptor complex for IL-7/HGF-beta was provided on Western blots after purification of receptor proteins from culture-generated CLPs/pre-pro-B cells on a scIL-7/HGF-beta affinity gel (FIG. 34).
binder,measurement,value
B1,binding result,binds
